± gives the uncertainty stated by the source.
Assay: protein stability index of a GFP-peptide fusion (yeast GPS) (PSI 1-4); higher = more stable; sorted into four equal gates, so the index is relative within each strain
Summary of the method: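 For each peptide, the protein stability index sums the read frequency in every gate after multiplying it by the gate number. Read frequencies came from plasmids that were PCR-amplified from each gate and Illumina-sequenced, with reads assigned to strains by barcodes. The gates were four equal bins of GFP/Cherry fluorescence ratio applied to mid-log yeast in leucine-free medium carrying a pooled library of tiled 17-residue yeast protein peptides fused downstream of GFP on a Cherry-expressing plasmid.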

Sequence: SKTVVTLSEPVQGELKP [FAS1]
- protein stability index (doa10∆): 2.56 ± 0.05
- protein stability index (pdr5∆): 2.73 ± 0.052
- protein stability index (san1∆): 2.5 ± 0.053
- protein stability index (ubr1∆): 2.18 ± 0.033

Sequence: SGQKAGLIAARRTGLLR [RPL2A]
- protein stability index (doa10∆): 3.07 ± 0.19
- protein stability index (pdr5∆): 3.43 ± 0.11
- protein stability index (san1∆): 3.15 ± 0.067
- protein stability index (ubr1∆): 2.72 ± 0.16

Sequence: GFGRKGKAKGDIPGVRF [RPS23A]
- protein stability index (doa10∆): 3.19 ± 0.14
- protein stability index (pdr5∆): 3.23 ± 0.13
- protein stability index (san1∆): 3.42 ± 0.052
- protein stability index (ubr1∆): 3.22 ± 0.094

Sequence: QPAKEKGVTEKDAVDYS [RRP6]
- protein stability index (doa10∆): 3.2 ± 0.21
- protein stability index (pdr5∆): 3.15 ± 0.17
- protein stability index (san1∆): 3.27 ± 0.091
- protein stability index (ubr1∆): 3.42 ± 0.062

Sequence: GPENALNVYHYFGENSS [YJL039C/NUP192]
- protein stability index (doa10∆): 2.05 ± 0.032
- protein stability index (pdr5∆): 2.05 ± 0.042
- protein stability index (san1∆): 2.06 ± 0.053
- protein stability index (ubr1∆): 2.65 ± 0.031

Sequence: EPSGIYSSWSAQTIGRN [PRE6]
- protein stability index (doa10∆): 1.24 ± 0.064
- protein stability index (pdr5∆): 1.21 ± 0.089
- protein stability index (san1∆): 1.06 ± 0.18
- protein stability index (ubr1∆): 1.53 ± 0.097

Sequence: TQLDDLQHELMISIIKL [YML103C/NUP188]
- protein stability index (pdr5∆): 2.29 ± 0.1
- protein stability index (san1∆): 2.19 ± 0.28
- protein stability index (ubr1∆): 2.51 ± 0.093

Sequence: ELALIEEAYDNPHDTLN [PRP8]
- protein stability index (doa10∆): 3.32 ± 0.088
- protein stability index (pdr5∆): 3.3 ± 0.077
- protein stability index (san1∆): 3.51 ± 0.076
- protein stability index (ubr1∆): 3.41 ± 0.07

Sequence: NLQTFTHEQWSNIQRNV [SRP72]
- protein stability index (doa10∆): 2.86 ± 0.065
- protein stability index (pdr5∆): 3 ± 0.064
- protein stability index (san1∆): 3.01 ± 0.058
- protein stability index (ubr1∆): 2.93 ± 0.046

Sequence: SAIVNEDGLLEGLDELP [SOH1]
- protein stability index (doa10∆): 2.95 ± 0.14
- protein stability index (pdr5∆): 3.24 ± 0.082
- protein stability index (san1∆): 2.78 ± 0.15
- protein stability index (ubr1∆): 2.8 ± 0.12

Sequence: RVSHSDTNSSKPKNTKE [SIR4]
- protein stability index (pdr5∆): 3.08 ± 0.26

Sequence: NRVPDGFQDRSLPHFPK [RPO31]
- protein stability index (doa10∆): 3.29 ± 0.16
- protein stability index (pdr5∆): 2.86 ± 0.15
- protein stability index (san1∆): 3.02 ± 0.11
- protein stability index (ubr1∆): 3.6 ± 0.2

Sequence: GEHISAIVPGQSISGTL [SWP82]
- protein stability index (doa10∆): 3.41 ± 0.15
- protein stability index (pdr5∆): 3.05 ± 0.13
- protein stability index (san1∆): 2.97 ± 0.17

Sequence: ELDTASRILKAQSRNVE [YGR119C/NUP57]
- protein stability index (doa10∆): 2.35 ± 0.055
- protein stability index (pdr5∆): 2.34 ± 0.063
- protein stability index (san1∆): 2.03 ± 0.077
- protein stability index (ubr1∆): 2.43 ± 0.056

Sequence: SVQDLGGSATARHKKKV [YML031W/NDC1]
- protein stability index (doa10∆): 2.7 ± 0.12
- protein stability index (pdr5∆): 1.75 ± 0.069
- protein stability index (san1∆): 1.57 ± 0.21
- protein stability index (ubr1∆): 2.05 ± 0.057

Sequence: SSVYRLKFAVQVDKVTK [RPL26A]
- protein stability index (doa10∆): 1.67 ± 0.16
- protein stability index (san1∆): 2.71 ± 0.24
- protein stability index (ubr1∆): 2.78 ± 0.27

Sequence: RGQQVENPTDNFIIWIN [GRR1]
- protein stability index (doa10∆): 2.08 ± 0.066
- protein stability index (pdr5∆): 2.35 ± 0.082
- protein stability index (san1∆): 2.59 ± 0.063
- protein stability index (ubr1∆): 2.61 ± 0.061

Sequence: YKAISAQADKQDISSST [FAS2]
- protein stability index (doa10∆): 2.91 ± 0.073
- protein stability index (pdr5∆): 2.87 ± 0.058
- protein stability index (san1∆): 2.3 ± 0.062
- protein stability index (ubr1∆): 2.83 ± 0.045

Sequence: FVHYGEIKNDFIMVKGC [RPL3]
- protein stability index (doa10∆): 2.06 ± 0.094
- protein stability index (pdr5∆): 2.14 ± 0.067
- protein stability index (san1∆): 2.1 ± 0.1
- protein stability index (ubr1∆): 2.38 ± 0.076

Sequence: LNLTGPKVPEDIYKSHL [RPN1]
- protein stability index (doa10∆): 2.9 ± 0.15
- protein stability index (pdr5∆): 3.11 ± 0.11
- protein stability index (san1∆): 2.85 ± 0.1
- protein stability index (ubr1∆): 2.9 ± 0.26

Sequence: LVGEYWEQLKITVVPVV [QCR6]
- protein stability index (doa10∆): 1.38 ± 0.26

Sequence: FIGRLPIMLRSKNCYLS [RPB2]
- protein stability index (doa10∆): 1.43 ± 0.072
- protein stability index (pdr5∆): 1.58 ± 0.081
- protein stability index (san1∆): 1.17 ± 0.14
- protein stability index (ubr1∆): 1.19 ± 0.054

Sequence: YHSAGGRDKHALSLLYH [SSN3]
- protein stability index (doa10∆): 3.12 ± 0.082
- protein stability index (pdr5∆): 3.02 ± 0.066
- protein stability index (san1∆): 3.19 ± 0.059
- protein stability index (ubr1∆): 3.32 ± 0.066

Sequence: YELEFDTPTSGKHNLTI [BRR2]
- protein stability index (doa10∆): 3.1 ± 0.068
- protein stability index (pdr5∆): 3.04 ± 0.076
- protein stability index (san1∆): 3.18 ± 0.061
- protein stability index (ubr1∆): 3.23 ± 0.065

Sequence: LGILKKKRFDEFMAGFN [SMC4]
- protein stability index (doa10∆): 2.15 ± 0.11
- protein stability index (pdr5∆): 2.15 ± 0.13
- protein stability index (san1∆): 1.88 ± 0.19
- protein stability index (ubr1∆): 1.87 ± 0.078

Sequence: KGEEAKLDSKKTVPFQV [SSN3]
- protein stability index (doa10∆): 3.27 ± 0.087
- protein stability index (pdr5∆): 3.37 ± 0.055
- protein stability index (san1∆): 3.2 ± 0.097
- protein stability index (ubr1∆): 3.23 ± 0.066

Sequence: RQPANTKIGAKRIHSVR [RPS8A]
- protein stability index (doa10∆): 3.08 ± 0.076
- protein stability index (pdr5∆): 3.26 ± 0.075
- protein stability index (san1∆): 2.74 ± 0.07
- protein stability index (ubr1∆): 3.04 ± 0.076

Reference: the supplement of paper PMC9732359
